{"source": "paper PMC5018210", "about": "(Nature, 2016)", "proteins": {"B1": {"name": "MHV S ectodomain trimer (murine hepatitis virus spike glycoprotein ectodomain, R717S, fused to a GCN4 trimerization motif) (domain or fragment)", "chain": "YIGDFRCIQLVNSNGANVSAPSISTETVEVSQGLGTYYVLDRVYLNATLLLTGYYPVDGSKFRNLALRGTNSVSLSWFQPPYLNQFNDGIFAKVQNLKTSTPSGATAYFPTIVIGSLFGYTSYTVVIEPYNGVIMASVCQYTICQLPYTDCKPNTNGNKLIGFWHTDVKPPICVLKRNFTLNVNADAFYFHFYQHGGTFYAYYADKPSATTFLFSVYIGDILTQYYVLPFICNPTAGSTFAPRYWVTPLVKRQYLFNFNQKGVITSAVDCASSYTSEIKCKTQSMLPSTGVYELSGYTVQPVGVVYRRVANLPACNIEEWLTARSVPSPLNWERKTFQNCNFNLSSLLRYVQAESLFCNNIDASKVYGRCFGSISVDKFAVPRSRQVDLQLGNSGFLQTANYKIDTAATSCQLHYTLPKNNVTINNHNPSSWNRRYGFNDAGVFGKNQHDVVYAQQCFTVRSSYCPCAQPDIVSPCTTQTKPKSAFVNVGDHCEGLGVLEDNCGNADPHKGCICANNSFIGWSHDTCLVNDRCQIFANILLNGINSGTTCSTDLQLPNTEVVTGICVKYDLYGITGQGVFKEVKADYYNSWQTLLYDVNGNLNGFRDLTTNKTYTIRSCYSGRVSAAFHKDAPEPALLYRNINCSYVFSNNISREENPLNYFDSYLGCVVNADNRTDEALPNCDLRMGAGLCVDYSKSRRAHSSVSTGYRLTTFEPYTPMLVNDSVQSVDGLYEMQIPTNFTIGHHEEFIQTRSPKVTIDCAAFVCGDNTACRQQLVEYGSFCVNVNAILNEVNNLLDNMQLQVASALMQGVTISSRLPDGISGPIDDINFSPLLGCIGSTCAEDGNGPSAIRGRSAIEDLLFDKVKLSDVGFVEAYNNCTGGQEVRDLLCVQSFNGIKVLPPVLSESQISGYTTGATAAAMFPPWSAAAGVPFSLSVQYRINGLGVTMNVLSENQKMIASAFNNALGAIQDGFDATNSALGKIQSVVNANAEALNNLLNQLSNRFGAISASLQEILTRLEAVEAKAQIDRLINGRLTALNAYISKQLSDSTLIKVSAAQAIEKVNECVKSQTTRINFCGNGNHILSLVQNAPYGLYFIHFSYVPISFTTANVSPGLCISGDRGLAPKAGYFVQDDGEWKFTGSSYYYPEPITDKNSVIMSSCAVNYTKAPEVFLNTSIPNPPDFKEELDKWFKNQTSIAPDLSLDFEKLNVTLLDLIKRMKQIEDKIEEIESKQKKIENEIARIKKIKLVPRGSLE"}}, "biological_target": "the molecule itself", "assay": "SEC-MALS"}
{"protein": "B1", "values": [{"measurement": "stoichiometry N", "value": 3}]}
